One data set concerns SMAD4 WT;SMAD3 P124S. The data set can be described thus: TR-FRET.
The test system of a further data set is SMAD4 R100T;SMAD3 WT. As to the kind of experiment: TR-FRET.

5'-FAM-SBE4: the binding signal (% of WT PDI signal) in the data set with SMAD4 WT;SMAD3 P124S and in the data set on SMAD4 R100T;SMAD3 WT was 25 in each case.

These data come from publication doi:10.1101/2023.07.15.549169.
